Data: a protein production outcome set (Wang et al. 2014)

Assay: label from the status in PepcDB records
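Note: failed if final PepcDB status was selected cloned or expressed and not failed if soluble or beyond.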

Sequence | protein production
MHYDVIVIGGGPSGLMAAIGAAEEGANVLLLDKGNKLGRKLAISGGGRCNVTNRLPLDEIVKHIPGNGRFLYSAFSIFNNEDIITFFENLGVKLKEEDPGRMFPVSNKAQSVVDALLTRLKDLGVKIRTNTPVETIEYENGQTKAVILQTGEVLETNHVVIAVGGKSVPQTGSTGDGYAWAEKAGHTITELFPTEVPILSNEPFIRDRSLQGLALRDINLSVLNPKGKAIISHKMDMLFTHFGLSGPAALRCSQFVVKALKKFKTNTIQMSIDALPEENSEQLFQRMLKQMKEDPKKGIKNVLKGYVPERYFLFLLEKNEIDGSEQAGQVSHEKIRALVKDFKEFTVNVNGTQSIEKAFVTGGGVSVKEINPKEMSSKFTNGLYFCGEVLDIHGYTGGYNITSALVTGRIAGTTAGENAKMQY | not failed
QTASGASYVLREIGADDTATAFAALSVLRSSLTDIGRFTEQINKIQRPQGYRLLGIFEECKHNAVAVCGFREACTLAGGRHIHIDDIVTLPQSRRKGYASRLLEEVRKIGAETGVTKIHLNVHVNHDRTDAHRLYFKNGFEICAYHFRCDPK | failed
RTDVIVVGVLDWKKGNLSFVSIPRDLMIEGKKINAIYNTYGMEKLFQIIESLLGQKPDSYVIFNYEAFKILVDELGPIEVIPNEVMFYEDLSQNLVIDFKPGVPYKLNGEQLLAYIRYRKDSMGDLARIERQKDVLKKLLSKALS | failed
NIYDSANELSRGLRGLPEYKAVKAAKDAIAADAEASKIFTDYLAFQEEIQKLAQTGQMPDASFQAKMEGFGKQIQGNSLLSEFFTKQQQLAIYLSDIEKIVFEPVSEL | failed
TIADVQSSRDLRNLPINQVGIKDLRFPITLQTAEGIQSTIARLTMTVYLPAEQKGTHMSRFVALMEQHAEALDFAQLRKLTTEMVALLDSRAGKISVSFPFFRKKTAPVSGIRSLLDYDVCLTGEIKDGAYGHSMKVMIPVTSLCPCSKEISQYGAHNQRSHVTVSLTADAEVGIEEVIDYVEAQASCQLYGLLKRPDEKYVTEKAYENPKFVEDMVRDVATSLIADKRIKSFVVESENFESIHNHSAYAYIAYP | not failed
MNLFVLLFVFVFGIIGSYSSKFSEKNLFWLFVIVLAIIIGGRSISVPDTDQYLEFYQLTLSSSILDIPLYSYEIGFQLLTKILKLITNGSSFFYFGIIVLINSYFLFKSFSCFTDQSYPSKKSSGTLINQIKLQEFLLLYFSYWGLYYTGIVLRAGIAMSILIYLSTLLCSPYISLKKWSAIFLLAIISCSFHITALLGIIALIIFYISKKMTMRSYLLLFLLICIILFGKVSFWIVDMLDRNMPMIFSLIEDTDFAKLQAYSNIDASIKISFRFLFCLLIGLFFIICKRMPLYYYKYLNVYIVGLFLGALFSAIEAFSRIMDFFVIYSFILISMRLSTINSFKIRFSIMFSIVLIQLLFVYRIIIGL | failed
MHQPHLSAEEKQHSHDHLSLDLIEAQYQLKNSAGKKNAKSVLVLVSGIELAGKGESVKQLREWVDPRYLRVKADPPQLLTTNQTFWQPYSSFIPAEGQIVVLFGNWYSDLLTTAMHVSKPLDETLFDAYVNSMRAFEQDLKNNHVDVVKVWFDLSWKSLQKRLDHIDASERQWHKLHGLDWRSKKQYETLQKLRQRFTPDWVFIDGEDEALRDREFAECILKALKDVPDHVQQADAAWTQSVVPQALLQPSSEVLEKAKYKKKLKKLTRRVADALRYDQRNVIVVFEGMDAAGKGGSIKRIVKRLDPREYDIFTISAPEKYELRHPYLWRFWTKLQNCSDIRIFDRSWYGRVLVERVEAFASDIEWQRAYDEINRFEKDLTDSQTVIVKIWLSISKEEQEKRFEAREKTPHKRFKITEDDWRNRAKWDEYLNAAADMFEHTSTDCAPWTIIATDDKPTARIKMLKAILKQLKSK | failed
MKLSDFIKTEDFKKEKHVPVIEAPEKVKKDEKVQIVVTVGKEIPHPNTTEHHIRWIKVFFQPDGDPYVYEVGRYEFNAHGESVQGPNIGAVYTEPTVTTVVKLNRSGTIIALSYCNIHGLWESSQKITVEE | not failed
MVKQGVFMKTDQSKVKKLSDYKSLDYFVIHVDLQIDLSKKPVESKARLTVVPNLNVDSHSNDLVLDGENMTLVSLQMNDNLLKENEYELTKDSLIIKNIPQNTPFTIEMTSLLGENTDLFGLYETEGVALVKAESEGLRRVFYLPDRPDNLATYKTTIIANQEDYPVLLSNGVLIEKKELPLGLHSVTWLDDVPKPSYLFALVAGNLQRSVTYYQTKSGRELPIEFYVPPSATSKCDFAKEVLKEAMAWDERTFNLECALRQHMVAGVDKYASGASEPTGLNLFNTENLFASPETKTDLGILRVLEVVAHEFFHYWSGDRVTIRDWFNLPLKEGLTTFRAAMFREELFGTDLIRLLDGKNLDERAPRQSAYTAVRSLYTAAAYEKSADIFRMMMLFIGKEPFIEAVAKFFKDNDGGAVTLEDFIESISNSSGKDLRSFLSWFTESGIPELIVTDELNPDTKQYFLKIKTVNGRNRPIPILMGLLDSSGAEIVADKLLIVDQEEIEFQFENIQTRPIPSLLRSFSAPVHMKYEYSYQDLLLLMQFDTNLYNRCEAAKQLISALINDFCIGKKIELSPQFFAVYKALLSDNSLNEWMLAELITLPSLEELIENQDKPDFEKLNEGRQLIQNALANELKTDFYNLLFRIQISGDDDKQKLKGFDLKQAGLRRLKSVCFSYLLNVDFEKTKEKLILQFEDALGKNMTETALALSMLCEINCEEADVALEDYYHYWKNDPGAVNNWFSIQALAHSPDVIERVKKLMRHGDFDLSNPNKVYALLGSFIKNPFGFHSVTGEGYQLVADAIFDLDKINPTLAANLTEKFTYWDKYDVNRQAMMISTLKIIYSNATSSDVRTMAKKGLDKVKEDLPLPIHLTFHGGSTMQDRTAQLIADGNKENAYQLH | failed
MDEKKIPRSLQAIIAQVKAHYADDQELQTLFEQCFLNTYLTTIQEDEQGTFVVTGDIPAMWLRDSSAQVRPYLTVVKEDADMARMIKGVIERQWRYILHDPYANAFNQTANKQGHQQDRTEMSPLVWERKYELDSLCYPIQLAYLYWKATGDDSVLQPTLKQVLETIYRIWKIEQDHEAKSSYSFERDDCRVSDTLLRKGKGGYSVPTGMTWSGFRPSDDACLYGYLIPANMFAVVVSNYAVELLTAMEEIKLAEEFRELEADIRQGIGQYGKMDHPVYGEIYVYETDGNGRVNLMDDANVPSLLAIPYLGYTTADDPVYQNTRRFILSRDNPYYYEGSYAKGVGSPHTPDHYVWHISLAIQGMTAIDSKEKKQIVAMFKQTHADTYFMHEGFDVDRPEQYTRSWFAWANSMFSEFLLSEAGIYVPGSPLENMKNNKAGDRHVLSTGKAAKPNQ | failed
SPESLYLLWGPQMQFFFNDAYRPVLGPRLANALGQTIQTLWADAWPDVQPMVEQAFLGYSCRHEDLPVNMQRYPGEELTWWSFSMSPVYDEDDEQVLGVLCHTVETTDRVLLARHARQTEAH | failed
MPYFLIHNKNDNVGVAIADIKTGQEVEGIYIEDMTQGPKIKAISDIPLGHKIALKDIRQSDIVIKYGRPIGSAIKDIKVGEHVHVHNIRSNRWGKWKNQ | not failed
MSTPYRPAMHHAWRLLPLGMAVASPLLAAEPLNLDAVNVTGFSEQESASDYRAGRASIYGLDQALLLDTPASVSVFSEALIKDRQAKLLSDVLRNDASVGEGYAPVGYYENFVVRGFSLNAANSYRINGRSIAGEQNVALENKQQVELLKGLSGLQSGVSEPGGVINYQTKRAQD | failed
MGRKPIKAGAIPRFRVRPQKSGVVYYYYDHGGKPRKETPLGRDYGLAIKRWAELEHAQITPAIAVTFRHVAERYRAEVIPTKAYNTQRMHHVYLNYLLQFFDDPPAPFESIKPVNIRQYLDWRPFKVSANREVALFSHLWNWARSKGITDLPNPCGGIRRNKERGRDVYIDDTTYRAVYQAADQTLRDAMDLAYLTGQRVSDVVSMDERHIVNGALEICQAKTGVKLAIAITGELAVLIKRIFDRKRGMKLRSTRLIVDEKGLGLNWKKLAYRFRKVRAAAGIAKEVFQFRDLRAKAATDKADLAGDIRQAQAQLGHTSVVMTEHYVRKRKGAKVTPTR | failed
MDNKLPHYSRERLLGEGGMGKVYLAQDNQLQRQVAIKELTYQPKDDEVNHALKEARLLARVNHSNIIQIYNVHDEGDHISLVMEYFNSKTLTQFQQEAYTTLVQKLDLLQQLSAGLAAAHKNGVIHCDLKPSNILVNDQGQLKITDFGIALLASNESQNSEQTASNNPLQFGSLLFMSPEQIKLQAVDYRSDIFSFGIIAYQLMVGSHPFAYGNNGGSATDVAKRICEHTPEHAKNLMLNAPSALTDLLMEMLVKPLEQRTLTAEAIENRLKHIRTALLQAEISEQATMPLSSGSANIAGDDTGQYTQAVHTTLLSQNTQIVQPADNLQASWFKQNYKTVASIALLCLVMILFVGFYNTQEVETKQVVILKPTLADSSLMAPMQQDLVISAVEDALRQAVINTKNMYLISQREVNAITKEYPDDLNKLRQAVGASDIISTTLECDNSRCKVSFSRLVVNDNSSDNLSVKSEKNWLAPVDKFNAIFSTSQTQFASLFPEESEVNQSGLVQRPINENDYRNYIELYSQIKGQGEYSVESLTKLETLLTRSPYLYAAYGLFRETASNLYTDSRDEIHLKRLELVLQNSPPEYRYSVYHAIDSFFVAYKIKELDTAQQQIIEAKNKGASSFVLSELNAILFFSKGQYQKAADTFEEALVLRPSTTLLYNLAFSYWRMGDLSKAEDALNKMLEIIPGNYKAQQLQANIWLLQGKLELAITAYEKIVAALSNGRDLTNLSLAYALNKQYKKSLIYAKKAVDLSPKNRIRRLNLADIEFILGRVKSSNFNYKKVIDAPVDNNKYRYWLDIAQAQLQLNQQNLAIEALNKAKHLAPDNGEVAYTSALVYSVLGERVSAIFEVNKALANKVGSVWFNLPWFDSLCDDKEFELLMVKYNNQKRCRT | failed
TKDFNLNVSATYNFNKNNIDELDGGKDIYYNSGWGSSAQHPSYDYVLSEGKPVGVIRGFKSAGFYTVDDFDYVDGVYKLKAGIPDISTAATGTYRRPSELQVADGQIAFPGALKLQDVDKSGIVDLDDVVDLGEVQAKHTGGFSLNGNYKNIDFGANFTYQIGGKVYNVATMSQLSGGKETGLGLNKYKDLAGAFQLYDIQNGNLVPVIEPTALKQLNANAKYALPYYEDAPILSDYVEDASYLRLNTLTVGYTLPKAWTTKAYMQKVRIYVTGGNLFCITGYSGLDPEVNSDPDKAKSYPTLGLDWGAYMRARTFTVGLNVEF | failed
MLNAIKFRIYPNAQQKELISKHFGCSRVVYNYFLDYRQKQYAKGIKETYFTMQKVLTQIKRQEKYHYLNECNSQSLQMALRQLVSAYDNFFSKRARYPKFKSKKNAKQSFAIPQNIETKTETQTIALPKFKEGIKAKLHRDLPKDSVIKQAFISCIADQYFCSLSYETKEPIPKPTIIKKAVGLDMGLRTLIVTSDKIGYPHIRFYQKLEKKLTKAQRRLSKKVKDSNNRKKQAKKVSRLHLACSNTRDDYLHKISNEITNQYDLIGVETLNVKALMRTYHSKSLANASWGKFLTMLEYKAQRKGKTLLSIDRFFPSSQLCSYCGVNTGKKHESITKFTCPHCQTTHHRDYNASVNIRNYALGMLDDRHKVKTDKARVGIIRSDYTHHTNECVKACGASSNGVSSKYGNILDLASYGAMKQEKAQSL | failed
MQYANAYQAYQHNRVSVESPAKLIEMLYEGILRFSSQAKRCIENEDIEKKIYYINRVTDIFTELLNILDYEKGGEVAVYLTGLYTHQIKVLTQANVENDASKIDLVLNVARGLLEAWREIHSDELA | failed
MTETYNKEQQEAMKKMMSFQMLYMLIMLGSLFIVITPSSRDAVGNLLNVVLIPTIGFGYRYPLLSIILTGVIIGVILSIPRYFFTDWVKMGKMQNTMKAFNEAIRAAYRERDMKKINKLNSMRMQMSMDQYQLSMNTMKPLLVISVLTILFYAWLFVFVGKIPYNYIAFPWDFNINISTAHFWIMPYWIFMYFLTEIVVSYFITMIMKYIDFTLRLRRISRETSS | failed
MPTLQLFIYIIGFLFLMYMAWSLWTEKPSNIEEIEPMSAKKQILFALSVSLLNPHAIMDTVGVIGTSASVYDGYDKVVFSLATISVSWIWFVFLAILGRITGKIDKSGKYIVILNKVSSVIVIIVGLIILKNIVGILS | failed
